The values that follow are results of earlier work, collected in article PMC4103764.

In the series the target is SARS 3C-like protease (SARS coronavirus) (UniProt P0C6X7). Kind of series: ITC.

As to “SARS 3C-like protease (from UniProt P0C6X7)”, the Kd (usually the equilibrium constant for the complex coming apart) is 21.4 µM.
